What was measured:
Assay in all cases: cell-based or functional assay
[1] = biological target: HIV-1 Env of pseudovirus CAAN5342.A2 (HIV-1)
[2] = biological target: HIV-1 Env of pseudovirus 0815.v3.c3 (HIV-1)
[3] = biological target: HIV-1 Env of pseudovirus Du422.1 (HIV-1)
[4] = biological target: HIV-1 Env of pseudovirus X1193_c1 (HIV-1)
[5] = biological target: HIV-1 Env of pseudovirus HIV-16055-2.3 (HIV-1)
[6] = biological target: HIV-1 Env of pseudovirus 6952.v1.c20 (HIV-1)
[7] = biological target: HIV-1 Env of pseudovirus 3817.v2.c59 (HIV-1)
[8] = biological target: HIV-1 Env of pseudovirus 6811.v7.c18 (HIV-1)
[9] = biological target: HIV-1 Env of pseudovirus 6480.v4.c25 (HIV-1)
[10] = biological target: HIV-1 Env of pseudovirus T250-4 (HIV-1)
[11] = biological target: HIV-1 Env of pseudovirus Ce703010054_2A2 (HIV-1)
[12] = biological target: HIV-1 Env of pseudovirus Du172.17 (HIV-1)
[13] = biological target: HIV-1 Env of pseudovirus 3365.v2.c2 (HIV-1)
[14] = biological target: HIV-1 Env of pseudovirus ZM197M.PB7 (HIV-1)
[15] = biological target: HIV-1 Env of pseudovirus P0402_c2_11 (HIV-1)
[16] = biological target: HIV-1 Env of pseudovirus THRO4156.18 (HIV-1)
[17] = biological target: HIV-1 Env of pseudovirus X1254_c3 (HIV-1)
[18] = biological target: HIV-1 Env of pseudovirus SC422661.8 (HIV-1)
[19] = biological target: HIV-1 Env of pseudovirus Q23.17 (HIV-1)
[20] = biological target: HIV-1 Env of pseudovirus REJO4541.67 (HIV-1)
[21] = biological target: HIV-1 Env of pseudovirus AC10.0.29 (HIV-1)
[22] = biological target: HIV-1 Env of pseudovirus 246F C1G (HIV-1)
[23] = biological target: HIV-1 Env of pseudovirus ZM53M.PB12 (HIV-1)
[24] = biological target: HIV-1 Env of pseudovirus T278-50 (HIV-1)
[25] = biological target: HIV-1 Env of pseudovirus 231965.c01 (HIV-1)
[26] = biological target: HIV-1 Env of pseudovirus WITO4160.33 (HIV-1)
[27] = biological target: HIV-1 Env of pseudovirus R3265.c06 (HIV-1)
[28] = biological target: HIV-1 Env of pseudovirus 3016.v5.c45 (HIV-1)
[29] = biological target: HIV-1 Env of pseudovirus BF1266.431a (HIV-1)
[30] = biological target: HIV-1 Env of pseudovirus 7030102001E5(Rev-) (HIV-1)
[31] = biological target: HIV-1 Env of pseudovirus BJOX010000.06.2 (HIV-1)
[32] = biological target: HIV-1 Env of pseudovirus 89-F1_2_25 (HIV-1)
[33] = biological target: HIV-1 Env of pseudovirus BJOX025000.01.1 (HIV-1)
[34] = biological target: HIV-1 Env of pseudovirus BJOX015000.11.5 (HIV-1)
[35] = biological target: HIV-1 Env of pseudovirus 1394C9G1(Rev-) (HIV-1)
[36] = biological target: HIV-1 Env of pseudovirus 191084 B7-19 (HIV-1)
[37] = biological target: HIV-1 Env of pseudovirus 0260.v5.c36 (HIV-1)

VRC01 (antibody)
IC50, titer in TZM.bl cells [1]: 0.82 µg/mL
IC80, titer in TZM.bl cells [1]: 2.8 µg/mL
IC50, titer in TZM.bl cells [2]: 0.06 µg/mL
IC80, titer in TZM.bl cells [2]: 0.13 µg/mL
IC50, titer in TZM.bl cells [3]: > 50 µg/mL
IC80, titer in TZM.bl cells [3]: > 50 µg/mL
IC50, titer in TZM.bl cells [4]: 0.11 µg/mL
IC80, titer in TZM.bl cells [4]: 0.32 µg/mL
IC50, titer in TZM.bl cells [5]: 0.08 µg/mL
IC80, titer in TZM.bl cells [5]: 0.26 µg/mL
IC50, titer in TZM.bl cells [6]: 0.04 µg/mL
IC80, titer in TZM.bl cells [6]: 0.12 µg/mL
IC50, titer in TZM.bl cells [7]: > 50 µg/mL
IC80, titer in TZM.bl cells [7]: > 50 µg/mL
IC50, titer in TZM.bl cells [8]: 0.09 µg/mL
IC80, titer in TZM.bl cells [8]: 0.26 µg/mL
IC50, titer in TZM.bl cells [9]: 0.04 µg/mL
IC80, titer in TZM.bl cells [9]: 0.09 µg/mL
IC50, titer in TZM.bl cells [10]: > 50 µg/mL
IC80, titer in TZM.bl cells [10]: > 50 µg/mL
IC50, titer in TZM.bl cells [11]: 0.53 µg/mL
IC80, titer in TZM.bl cells [11]: 1.84 µg/mL
IC50, titer in TZM.bl cells [12]: > 50 µg/mL
IC80, titer in TZM.bl cells [12]: > 50 µg/mL
IC50, titer in TZM.bl cells [13]: 0.06 µg/mL
IC80, titer in TZM.bl cells [13]: 0.17 µg/mL
IC50, titer in TZM.bl cells [14]: 0.36 µg/mL
IC80, titer in TZM.bl cells [14]: 1.6 µg/mL
IC50, titer in TZM.bl cells [15]: 0.21 µg/mL
IC80, titer in TZM.bl cells [15]: 0.59 µg/mL
IC80, titer in TZM.bl cells [16]: 23 µg/mL
IC50, titer in TZM.bl cells [17]: 0.07 µg/mL
IC80, titer in TZM.bl cells [17]: 0.19 µg/mL
IC50, titer in TZM.bl cells [18]: 0.08 µg/mL
IC80, titer in TZM.bl cells [18]: 0.265 µg/mL
IC50, titer in TZM.bl cells [19]: 0.09 µg/mL
IC80, titer in TZM.bl cells [19]: 0.261 µg/mL
IC50, titer in TZM.bl cells [20]: 0.06 µg/mL
IC80, titer in TZM.bl cells [20]: 0.25 µg/mL
IC50, titer in TZM.bl cells [21]: 2.2 µg/mL
IC80, titer in TZM.bl cells [21]: 6.5 µg/mL
IC50, titer in TZM.bl cells [22]: > 10 µg/mL
IC80, titer in TZM.bl cells [22]: > 10 µg/mL
IC50, titer in TZM.bl cells [23]: 1.3 µg/mL
IC80, titer in TZM.bl cells [23]: 4 µg/mL
IC50, titer in TZM.bl cells [24]: > 50 µg/mL
IC80, titer in TZM.bl cells [24]: > 50 µg/mL
IC50, titer in TZM.bl cells [25]: 0.34 µg/mL
IC80, titer in TZM.bl cells [25]: 1.2 µg/mL
IC50, titer in TZM.bl cells [26]: 0.15 µg/mL
IC80, titer in TZM.bl cells [26]: 0.41 µg/mL
IC50, titer in TZM.bl cells [27]: 0.45 µg/mL
IC80, titer in TZM.bl cells [27]: 1.88 µg/mL
IC50, titer in TZM.bl cells [28]: 0.16 µg/mL
IC80, titer in TZM.bl cells [28]: 0.42 µg/mL
IC50, titer in TZM.bl cells [29]: 0.07 µg/mL
IC80, titer in TZM.bl cells [29]: 0.23 µg/mL
IC50, titer in TZM.bl cells [30]: 0.54 µg/mL
IC80, titer in TZM.bl cells [30]: 2.08 µg/mL

VRC07 (antibody)
neutralization IC50 [1]: 0.307 µg/mL
neutralization IC80 [1]: 1.05 µg/mL
IC50, titer in TZM.bl cells [2]: 0.015 µg/mL
IC80, titer in TZM.bl cells [2]: 0.051 µg/mL
neutralization IC50 [3]: > 50 µg/mL
neutralization IC80 [3]: > 50 µg/mL
IC50, titer in TZM.bl cells [4]: 0.037 µg/mL
IC80, titer in TZM.bl cells [4]: 0.249 µg/mL
IC50, titer in TZM.bl cells [31]: 1.06 µg/mL
IC80, titer in TZM.bl cells [31]: 10 µg/mL
neutralization IC50 [5]: 0.025 µg/mL
neutralization IC80 [5]: 0.135 µg/mL
IC50, titer in TZM.bl cells [6]: 0.064 µg/mL
IC80, titer in TZM.bl cells [6]: 0.181 µg/mL
IC50, titer in TZM.bl cells [7]: 1.9 µg/mL
IC80, titer in TZM.bl cells [7]: 19.8 µg/mL
IC50, titer in TZM.bl cells [8]: 0.093 µg/mL
IC80, titer in TZM.bl cells [8]: 0.435 µg/mL
IC50, titer in TZM.bl cells [9]: 0.032 µg/mL
IC80, titer in TZM.bl cells [9]: 0.134 µg/mL
IC50, titer in TZM.bl cells [10]: > 50 µg/mL
IC80, titer in TZM.bl cells [10]: > 50 µg/mL
IC50, titer in TZM.bl cells [32]: > 50 µg/mL
IC80, titer in TZM.bl cells [32]: > 50 µg/mL
neutralization IC50 [11]: 0.19 µg/mL
neutralization IC80 [11]: 0.912 µg/mL
neutralization IC50 [12]: 0.796 µg/mL
neutralization IC80 [12]: 3.66 µg/mL
neutralization IC50 [13]: 0.038 µg/mL
neutralization IC80 [13]: 0.109 µg/mL
neutralization IC50 [14]: 0.307 µg/mL
neutralization IC80 [14]: 1.27 µg/mL
IC50, titer in TZM.bl cells [15]: 0.085 µg/mL
IC80, titer in TZM.bl cells [15]: 0.422 µg/mL
neutralization IC50 [16]: 2.4 µg/mL
neutralization IC80 [16]: 12.2 µg/mL
IC50, titer in TZM.bl cells [17]: 0.041 µg/mL
IC80, titer in TZM.bl cells [17]: 0.2 µg/mL
neutralization IC50 [18]: 0.054 µg/mL
neutralization IC80 [18]: 0.175 µg/mL
IC50, titer in TZM.bl cells [33]: 0.279 µg/mL
IC80, titer in TZM.bl cells [33]: 2.29 µg/mL
neutralization IC50 [19]: 0.081 µg/mL
neutralization IC80 [19]: 0.236 µg/mL
IC50, titer in TZM.bl cells [34]: 0.054 µg/mL
IC80, titer in TZM.bl cells [34]: 0.479 µg/mL
neutralization IC50 [20]: 0.011 µg/mL
neutralization IC80 [20]: 0.037 µg/mL
neutralization IC50 [35]: 0.112 µg/mL
neutralization IC80 [35]: 0.368 µg/mL
neutralization IC50 [21]: 0.282 µg/mL
neutralization IC80 [21]: 0.986 µg/mL
neutralization IC50 [22]: 0.286 µg/mL
neutralization IC80 [22]: 1.04 µg/mL
neutralization IC50 [23]: 0.275 µg/mL
neutralization IC80 [23]: 1.29 µg/mL
IC50, titer in TZM.bl cells [24]: > 50 µg/mL
IC80, titer in TZM.bl cells [24]: > 50 µg/mL
IC50, titer in TZM.bl cells [25]: 0.085 µg/mL
IC80, titer in TZM.bl cells [25]: 0.263 µg/mL
neutralization IC50 [26]: 0.042 µg/mL
neutralization IC80 [26]: 0.193 µg/mL
neutralization IC50 [36]: 0.061 µg/mL
neutralization IC80 [36]: 0.209 µg/mL
neutralization IC50 [37]: 0.448 µg/mL
neutralization IC80 [37]: 1.62 µg/mL
IC50, titer in TZM.bl cells [28]: 0.095 µg/mL
IC80, titer in TZM.bl cells [28]: 0.392 µg/mL
neutralization IC50 [29]: 0.032 µg/mL
neutralization IC80 [29]: 0.117 µg/mL
neutralization IC50 [30]: 0.205 µg/mL
neutralization IC80 [30]: 0.911 µg/mL
